Assay results reported in IntAct's records for PubMed 31515488.

B1: Proton-coupled zinc antiporter SLC30A2 (Homo sapiens), Q9BRI3 (parent)
chain: MEAKEKQHLLDARPAIRSYTGSLWQEGAGWIPLPRPGLDLQAIELAAQSNHHCHAQKGPDSHCDPKKGKAQRQLYVASAICLLFMIGEVVGGYLAHSLAVMTDAAHLLTDFASMLISLFSLWMSSRPATKTMNFGWQRAEILGALVSVLSIWVVTGVLVYLAVERLISGDYEIDGGTMLITSGCAVAVNIIMGLTLHQSGHGHSHGTTNQQEENPSVRAAFIHVIGDFMQSMGVLVAAYILYFKPEYKYVDPICTFVFSILVLGTTLTILRDVILVLMEGTPKGVDFTAVRDLLLSVEGVEALHSLHIWALTVAQPVLSVHIAIAQNTDAQAVLKTASSRLQGKFHFHTVTIQIEDYSEDMKDCQACQGPSD
partner: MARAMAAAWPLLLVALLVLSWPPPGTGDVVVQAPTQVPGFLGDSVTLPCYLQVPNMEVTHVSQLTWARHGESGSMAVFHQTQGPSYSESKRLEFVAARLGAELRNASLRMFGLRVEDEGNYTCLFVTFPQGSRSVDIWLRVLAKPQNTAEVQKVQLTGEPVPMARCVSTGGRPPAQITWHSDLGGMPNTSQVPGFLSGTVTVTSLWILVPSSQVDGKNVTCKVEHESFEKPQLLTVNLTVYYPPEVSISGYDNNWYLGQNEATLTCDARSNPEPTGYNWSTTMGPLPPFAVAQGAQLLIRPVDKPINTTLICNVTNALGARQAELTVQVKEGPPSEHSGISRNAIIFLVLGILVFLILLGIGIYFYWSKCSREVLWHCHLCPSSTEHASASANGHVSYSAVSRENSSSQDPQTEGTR
B2: Four and a half LIM domains protein 3 (Homo sapiens), Q13643 (parent)
chain: MSESFDCAKCNESLYGRKYIQTDSGPYCVPCYDNTFANTCAECQQLIGHDSRELFYEDRHFHEGCFRCCRCQRSLADEPFTCQDSELLCNDCYCSAFSSQCSACGETVMPGSRKLEYGGQTWHEHCFLCSGCEQPLGSRSFVPDKGAHYCVPCYENKFAPRCARCSKTLTQGGVTYRDQPWHRECLVCTGCQTPLAGQQFTSRDEDPYCVACFGELFAPKCSSCKRPIVGLGGGKYVSFEDRHWHHNCFSCARCSTSLVGQGFVPDGDQVLCQGCSQAGP
partner: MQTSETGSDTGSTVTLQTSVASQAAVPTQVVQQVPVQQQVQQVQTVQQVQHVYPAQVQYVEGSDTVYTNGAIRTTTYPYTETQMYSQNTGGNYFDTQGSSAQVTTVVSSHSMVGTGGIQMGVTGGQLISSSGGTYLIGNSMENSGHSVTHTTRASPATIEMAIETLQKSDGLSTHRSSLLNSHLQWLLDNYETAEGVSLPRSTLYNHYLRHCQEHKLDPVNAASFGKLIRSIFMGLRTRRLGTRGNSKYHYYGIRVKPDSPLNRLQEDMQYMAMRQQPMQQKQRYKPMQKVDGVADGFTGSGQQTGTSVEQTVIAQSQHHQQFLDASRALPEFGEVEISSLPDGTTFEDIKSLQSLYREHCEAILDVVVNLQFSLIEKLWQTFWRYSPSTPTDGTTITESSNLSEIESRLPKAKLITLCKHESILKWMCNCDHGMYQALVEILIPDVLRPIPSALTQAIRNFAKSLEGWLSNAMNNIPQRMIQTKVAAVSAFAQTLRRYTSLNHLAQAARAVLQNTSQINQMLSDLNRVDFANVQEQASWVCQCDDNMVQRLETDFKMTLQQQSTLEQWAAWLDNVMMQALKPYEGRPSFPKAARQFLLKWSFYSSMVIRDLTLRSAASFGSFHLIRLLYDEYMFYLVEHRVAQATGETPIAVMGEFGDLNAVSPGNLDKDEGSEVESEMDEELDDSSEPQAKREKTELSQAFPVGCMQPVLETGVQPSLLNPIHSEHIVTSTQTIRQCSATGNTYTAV
B3: Centrin-1 (Homo sapiens), Q12798 (parent)
chain: MASGFKKPSAASTGQKRKVAPKPELTEDQKQEVREAFDLFDVDGSGTIDAKELKVAMRALGFEPRKEEMKKMISEVDREGTGKISFNDFLAVMTQKMSEKDTKEEILKAFRLFDDDETGKISFKNLKRVANELGENLTDEELQEMIDEADRDGDGEVNEEEFLRIMKKTSLY
partner: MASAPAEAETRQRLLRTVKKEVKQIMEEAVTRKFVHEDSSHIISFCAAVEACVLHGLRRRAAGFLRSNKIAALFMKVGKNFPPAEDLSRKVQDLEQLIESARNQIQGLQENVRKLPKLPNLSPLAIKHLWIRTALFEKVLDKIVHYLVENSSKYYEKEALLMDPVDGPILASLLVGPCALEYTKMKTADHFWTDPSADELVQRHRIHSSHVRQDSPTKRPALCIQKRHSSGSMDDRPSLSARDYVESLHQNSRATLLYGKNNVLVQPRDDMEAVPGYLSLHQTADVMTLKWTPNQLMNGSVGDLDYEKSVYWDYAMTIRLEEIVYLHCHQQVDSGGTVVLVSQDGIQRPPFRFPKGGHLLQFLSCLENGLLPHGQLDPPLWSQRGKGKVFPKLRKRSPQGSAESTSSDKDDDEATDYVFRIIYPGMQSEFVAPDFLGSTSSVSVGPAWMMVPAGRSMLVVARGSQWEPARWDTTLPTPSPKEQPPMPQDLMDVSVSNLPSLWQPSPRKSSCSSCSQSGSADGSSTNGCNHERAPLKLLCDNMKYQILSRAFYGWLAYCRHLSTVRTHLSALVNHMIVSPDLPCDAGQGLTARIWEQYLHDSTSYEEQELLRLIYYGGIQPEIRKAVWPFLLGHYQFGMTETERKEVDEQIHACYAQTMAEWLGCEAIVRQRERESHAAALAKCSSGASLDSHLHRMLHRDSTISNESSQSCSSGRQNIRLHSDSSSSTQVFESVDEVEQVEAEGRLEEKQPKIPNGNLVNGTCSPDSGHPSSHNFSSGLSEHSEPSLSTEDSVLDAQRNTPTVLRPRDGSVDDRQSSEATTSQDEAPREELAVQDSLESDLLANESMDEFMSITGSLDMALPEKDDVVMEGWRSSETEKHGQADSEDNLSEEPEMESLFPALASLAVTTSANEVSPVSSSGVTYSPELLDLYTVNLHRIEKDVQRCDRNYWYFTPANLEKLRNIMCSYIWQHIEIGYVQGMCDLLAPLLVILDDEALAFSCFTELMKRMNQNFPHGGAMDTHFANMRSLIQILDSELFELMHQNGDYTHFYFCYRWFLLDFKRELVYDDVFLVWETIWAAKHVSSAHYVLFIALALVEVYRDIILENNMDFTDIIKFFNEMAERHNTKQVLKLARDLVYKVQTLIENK
B4: Forkhead box protein R1 (Homo sapiens), Q6PIV2 (parent)
chain: MGNELFLAFTTSHLPLAEQKLARYKLRIVKPPKLPLEKKPNPDKDGPDYEPNLWMWVNPNIVYPPGKLEVSGRRKREDLTSTLPSSQPPQKEEDASCSEAAGVESLSQSSSKRSPPRKRFAFSPSTWELTEEEEAEDQEDSSSMALPSPHKRAPLQSRRLRQASSQAGRLWSRPPLNYFHLIALALRNSSPCGLNVQQIYSFTRKHFPFFRTAPEGWKNTVRHNLCFRDSFEKVPVSMQGGASTRPRSCLWKLTEEGHRRFAEEARALASTRLESIQQCMSQPDVMPFLFDL
partner: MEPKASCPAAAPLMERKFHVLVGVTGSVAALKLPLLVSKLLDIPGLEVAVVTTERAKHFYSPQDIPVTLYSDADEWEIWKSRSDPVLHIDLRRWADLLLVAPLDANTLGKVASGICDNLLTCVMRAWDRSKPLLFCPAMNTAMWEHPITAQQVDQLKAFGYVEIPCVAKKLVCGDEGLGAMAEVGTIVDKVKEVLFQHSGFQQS
B5: Nuclear protein AMMECR1 (Homo sapiens), Q9Y4X0 (parent)
chain: MAAGCCGVKKQKLSSSPPSGSGGGGGASSSSHCSGESQCRAGELGLGGAGTRLNGLGGLTGGGSGSGCTLSPPQGCGGGGGGIALSPPPSCGVGTLLSTPAAATSSSPSSSSAASSSSPGSRKMVVSAEMCCFCFDVLYCHLYGYQQPRTPRFTNEPYPLFVTWKIGRDKRLRGCIGTFSAMNLHSGLREYTLTSALKDSRFPPMTRDELPRLFCSVSLLTNFEDVCDYLDWEVGVHGIRIEFINEKGSKRTATYLPEVAKEQGWDHIQTIDSLLRKGGYKAPITNEFRKTIKLTRYRSEKMTLSYAEYLAHRQHHHFQNGIGHPLPPYNHYS
partner: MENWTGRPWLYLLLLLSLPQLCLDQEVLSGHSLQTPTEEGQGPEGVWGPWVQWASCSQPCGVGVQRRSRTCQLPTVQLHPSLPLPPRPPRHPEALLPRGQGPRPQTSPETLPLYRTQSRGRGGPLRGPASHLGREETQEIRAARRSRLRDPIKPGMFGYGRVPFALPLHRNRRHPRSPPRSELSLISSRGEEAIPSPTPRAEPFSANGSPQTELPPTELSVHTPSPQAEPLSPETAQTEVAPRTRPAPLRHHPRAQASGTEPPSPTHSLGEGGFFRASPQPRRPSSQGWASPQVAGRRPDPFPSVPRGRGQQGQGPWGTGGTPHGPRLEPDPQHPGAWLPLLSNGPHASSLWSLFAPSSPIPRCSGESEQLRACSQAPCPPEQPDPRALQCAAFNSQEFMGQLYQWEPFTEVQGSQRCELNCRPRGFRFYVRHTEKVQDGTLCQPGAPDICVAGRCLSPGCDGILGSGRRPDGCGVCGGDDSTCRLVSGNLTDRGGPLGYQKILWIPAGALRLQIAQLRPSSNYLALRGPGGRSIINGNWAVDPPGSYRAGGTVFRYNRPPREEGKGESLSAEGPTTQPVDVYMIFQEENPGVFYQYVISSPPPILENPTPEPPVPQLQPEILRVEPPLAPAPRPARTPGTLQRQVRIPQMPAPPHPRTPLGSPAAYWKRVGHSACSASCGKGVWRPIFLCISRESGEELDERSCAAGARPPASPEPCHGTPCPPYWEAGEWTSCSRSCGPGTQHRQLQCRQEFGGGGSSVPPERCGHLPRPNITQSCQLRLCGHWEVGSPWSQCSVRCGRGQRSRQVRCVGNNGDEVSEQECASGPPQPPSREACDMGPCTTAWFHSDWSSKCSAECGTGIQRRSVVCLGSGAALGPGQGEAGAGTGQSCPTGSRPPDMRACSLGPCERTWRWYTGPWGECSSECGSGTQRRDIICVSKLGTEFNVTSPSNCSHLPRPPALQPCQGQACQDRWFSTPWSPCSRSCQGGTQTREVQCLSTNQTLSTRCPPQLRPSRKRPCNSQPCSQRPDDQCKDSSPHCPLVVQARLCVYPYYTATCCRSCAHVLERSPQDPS
B6: TNFAIP3-interacting protein 3 (Homo sapiens), Q96KP6 (parent)
chain: MAHFVQGTSRMIAAESSTEHKECAEPSTRKNLMNSLEQKIRCLEKQRKELLEVNQQWDQQFRSMKELYERKVAELKTKLDAAERFLSTREKDPHQRQRKDDRQREDDRQRDLTRDRLQREEKEKERLNEELHELKEENKLLKGKNTLANKEKEHYECEIKRLNKALQDALNIKCSFSEDCLRKSRVEFCHEEMRTEMEVLKQQVQIYEEDFKKERSDRERLNQEKEELQQINETSQSQLNRLNSQIKACQMEKEKLEKQLKQMYCPPCNCGLVFHLQDPWVPTGPGAVQKQREHPPDYQWYALDQLPPDVQHKANGLSSVKKVHP
B7: Four and a half LIM domains protein 2 (Homo sapiens), Q14192 (parent)
chain: MTERFDCHHCNESLFGKKYILREESPYCVVCFETLFANTCEECGKPIGCDCKDLSYKDRHWHEACFHCSQCRNSLVDKPFAAKEDQLLCTDCYSNEYSSKCQECKKTIMPGTRKMEYKGSSWHETCFICHRCQQPIGTKSFIPKDNQNFCVPCYEKQHAMQCVQCKKPITTGGVTYREQPWHKECFVCTACRKQLSGQRFTARDDFAYCLNCFCDLYAKKCAGCTNPISGLGGTKYISFEERQWHNDCFNCKKCSLSLVGRGFLTERDDILCPDCGKDI
partner: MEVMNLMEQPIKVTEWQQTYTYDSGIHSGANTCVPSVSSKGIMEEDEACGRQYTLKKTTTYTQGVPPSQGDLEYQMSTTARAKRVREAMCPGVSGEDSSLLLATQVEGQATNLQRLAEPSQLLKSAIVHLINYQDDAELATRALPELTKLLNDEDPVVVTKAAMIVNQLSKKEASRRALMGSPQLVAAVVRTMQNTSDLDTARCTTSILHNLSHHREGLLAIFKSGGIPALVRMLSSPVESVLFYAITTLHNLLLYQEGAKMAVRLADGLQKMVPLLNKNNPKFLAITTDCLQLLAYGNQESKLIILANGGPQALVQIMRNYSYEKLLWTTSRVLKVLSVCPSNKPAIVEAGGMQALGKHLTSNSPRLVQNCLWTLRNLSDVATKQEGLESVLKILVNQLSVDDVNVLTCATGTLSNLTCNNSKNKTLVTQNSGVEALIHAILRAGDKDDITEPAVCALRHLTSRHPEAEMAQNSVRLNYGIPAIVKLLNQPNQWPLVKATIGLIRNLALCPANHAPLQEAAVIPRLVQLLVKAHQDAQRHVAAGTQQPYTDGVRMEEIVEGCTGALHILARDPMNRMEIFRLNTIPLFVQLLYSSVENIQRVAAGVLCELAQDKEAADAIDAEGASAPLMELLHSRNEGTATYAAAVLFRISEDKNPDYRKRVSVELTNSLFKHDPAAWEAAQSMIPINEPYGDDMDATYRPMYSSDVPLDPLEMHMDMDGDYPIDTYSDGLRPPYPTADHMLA
B8: Melanoma-associated antigen F1 (Homo sapiens), Q9HAY2 (parent)
chain: MLQTPESRGLPVPQAEGEKDGGHDGETRAPTASQERPKEELGAGREEGAAEPALTRKGARALAAKALARRRAYRRLNRTVAELVQFLLVKDKKKSPITRSEMVKYVIGDLKILFPDIIARAAEHLRYVFGFELKQFDRKHHTYILINKLKPLEEEEEEDLGGDGPRLGLLMMILGLIYMRGNSAREAQVWEMLRRLGVQPSKYHFLFGYPKRLIMEDFVQQRYLSYRRVPHTNPPEYEFSWGPRSNLEISKMEVLGFVAKLHKKEPQHWPVQYREALADEADRARAKARAEASMRARASARAGIHLW

Variants of: B1
Details: with pvr_human PVR

Variant | effect of a mutation on the interaction
T181M | with no effect

Variants of: B2
Details: with rfx3_human RFX3, P48380

Variant | effect of a mutation on the interaction
R226H | with no effect

Variants of: B3
Details: with sgsm1_human SGSM1, Q2NKQ1

Variant | effect of a mutation on the interaction
M72T | with no effect

Variants of: B4
Details: with coac_human PPCDC

Variant | effect of a mutation on the interaction
A8T | with no effect
W127C | with no effect
E18G | disrupting interaction strength

Variants of: B5
Details: with atl4_human ADAMTSL4, Q6UY14

Variant | effect of a mutation on the interaction
R207G | with no effect

Variants of: B6
Details: with taxb1_human TAX1BP1, Q86VP1
taxb1_human TAX1BP1, Q86VP1, sequence (Q86VP1 whole entry): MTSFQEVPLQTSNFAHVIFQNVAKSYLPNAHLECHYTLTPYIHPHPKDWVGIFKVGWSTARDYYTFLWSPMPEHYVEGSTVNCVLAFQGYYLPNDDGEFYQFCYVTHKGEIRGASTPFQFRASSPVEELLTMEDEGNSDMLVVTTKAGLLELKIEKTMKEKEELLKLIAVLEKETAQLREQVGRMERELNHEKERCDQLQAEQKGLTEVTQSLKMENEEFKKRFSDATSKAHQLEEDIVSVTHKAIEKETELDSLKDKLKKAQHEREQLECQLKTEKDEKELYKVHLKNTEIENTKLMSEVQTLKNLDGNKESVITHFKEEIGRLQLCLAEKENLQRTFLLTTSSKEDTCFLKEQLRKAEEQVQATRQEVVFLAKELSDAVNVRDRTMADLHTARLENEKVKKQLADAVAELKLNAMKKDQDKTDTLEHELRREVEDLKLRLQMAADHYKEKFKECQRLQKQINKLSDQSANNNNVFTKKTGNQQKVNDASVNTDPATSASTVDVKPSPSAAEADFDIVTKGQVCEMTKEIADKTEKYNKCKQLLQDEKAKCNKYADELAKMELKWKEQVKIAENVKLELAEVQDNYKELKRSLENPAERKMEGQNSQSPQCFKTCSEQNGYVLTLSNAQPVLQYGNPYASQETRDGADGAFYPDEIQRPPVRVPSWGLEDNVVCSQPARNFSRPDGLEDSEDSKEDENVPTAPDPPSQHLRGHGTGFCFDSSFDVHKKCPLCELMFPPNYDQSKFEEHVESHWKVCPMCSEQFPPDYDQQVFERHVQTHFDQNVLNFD

Variant | effect of a mutation on the interaction
K99E | with no effect

Variants of: B7
Details: with plak_human JUP

Variant | effect of a mutation on the interaction
N95K | disrupting interaction strength
A37S | with no effect

Variants of: B8
Details: with mdfi_human MDFI

Variant | effect of a mutation on the interaction
K93R | with no effect
